Test results taken from US20090318349A1 (Novo Nordisk, published 2009).

B1: GlyPro-mTGase from S. ladakanum (enzyme)
chain: GPDSDERVTPPAEPLDRMPDPYRPSYGRAETIVNNYIRKWQQVYSHRDGRKQQMTEEQREWLSYGCVGVTWVNSGQYPTNRLAFAFFDEDKYKNELKNGRPRSGETRAEFEGRVAKDSFDEAKGFQRARDVASVMNKALENAHDEGAYLDNLKKELANGNDALRNEDARSPFYSALRNTPSFKDRNGGNHDPSKMKAVIYSKHFWSGQDRSGSSDKRKYGDPEAFRPDRGTGLVDMSRDRNIPRSPTSPGESFVNFDYGWFGAQTEADADKTVWTHGNHYHAPNGSLGAMHVYESKFRNWSDGYSDFDRGAYVVTFVPKSWNTAPDKVKQGWP
B2: GlyPro-mTGase_Y75F from S. ladakanum (enzyme)
chain: GPDSDERVTPPAEPLDRMPDPYRPSYGRAETIVNNYIRKWQQVYSHRDGRKQQMTEEQREWLSYGCVGVTWVNSGQFPTNRLAFAFFDEDKYKNELKNGRPRSGETRAEFEGRVAKDSFDEAKGFQRARDVASVMNKALENAHDEGAYLDNLKKELANGNDALRNEDARSPFYSALRNTPSFKDRNGGNHDPSKMKAVIYSKHFWSGQDRSGSSDKRKYGDPEAFRPDRGTGLVDMSRDRNIPRSPTSPGESFVNFDYGWFGAQTEADADKTVWTHGNHYHAPNGSLGAMHVYESKFRNWSDGYSDFDRGAYVVTFVPKSWNTAPDKVKQGWP
B3: GlyPro-mTGase_Y62H_Y75N from S. ladakanum (enzyme)
chain: GPDSDERVTPPAEPLDRMPDPYRPSYGRAETIVNNYIRKWQQVYSHRDGRKQQMTEEQREWLSHGCVGVTWVNSGQNPTNRLAFAFFDEDKYKNELKNGRPRSGETRAEFEGRVAKDSFDEAKGFQRARDVASVMNKALENAHDEGAYLDNLKKELANGNDALRNEDARSPFYSALRNTPSFKDRNGGNHDPSKMKAVIYSKHFWSGQDRSGSSDKRKYGDPEAFRPDRGTGLVDMSRDRNIPRSPTSPGESFVNFDYGWFGAQTEADADKTVWTHGNHYHAPNGSLGAMHVYESKFRNWSDGYSDFDRGAYVVTFVPKSWNTAPDKVKQGWP
B4: GlyPro-mTGase_Y62H_Y75F from S. ladakanum (enzyme)
chain: GPDSDERVTPPAEPLDRMPDPYRPSYGRAETIVNNYIRKWQQVYSHRDGRKQQMTEEQREWLSHGCVGVTWVNSGQFPTNRLAFAFFDEDKYKNELKNGRPRSGETRAEFEGRVAKDSFDEAKGFQRARDVASVMNKALENAHDEGAYLDNLKKELANGNDALRNEDARSPFYSALRNTPSFKDRNGGNHDPSKMKAVIYSKHFWSGQDRSGSSDKRKYGDPEAFRPDRGTGLVDMSRDRNIPRSPTSPGESFVNFDYGWFGAQTEADADKTVWTHGNHYHAPNGSLGAMHVYESKFRNWSDGYSDFDRGAYVVTFVPKSWNTAPDKVTQGWP
B5: GlyPro-mTGase_Y75A from S. ladakanum (enzyme)
chain: GPDSDERVTPPAEPLDRMPDPYRPSYGRAETIVNNYIRKWQQVYSHRDGRKQQMTEEQREWLSYGCVGVTWVNSGQAPTNRLAFAFFDEDKYKNELKNGRPRSGETRAEFEGRVAKDSFDEAKGFQRARDVASVMNKALENAHDEGAYLDNLKKELANGNDALRNEDARSPFYSALRNTPSFKDRNGGNHDPSKMKAVIYSKHFWSGQDRSGSSDKRKYGDPEAFRPDRGTGLVDMSRDRNIPRSPTSPGESFVNFDYGWFGAQTEADADKTVWTHGNHYHAPNGSLGAMHVYESKFRNWSDGYSDFDRGAYVVTFVPKSWNTAPDKVKQGWP
B6: GlyPro-mTGase_Y75N from S. ladakanum (enzyme)
chain: GPDSDERVTPPAEPLDRMPDPYRPSYGRAETIVNNYIRKWQQVYSHRDGRKQQMTEEQREWLSYGCVGVTWVNSGQNPTNRLAFAFFDEDKYKNELKNGRPRSGETRAEFEGRVAKDSFDEAKGFQRARDVASVMNKALENAHDEGAYLDNLKKELANGNDALRNEDARSPFYSALRNTPSFKDRNGGNHDPSKMKAVIYSKHFWSGQDRSGSSDKRKYGDPEAFRPDRGTGLVDMSRDRNIPRSPTSPGESFVNFDYGWFGAQTEADADKTVWTHGNHYHAPNGSLGAMHVYESKFRNWSDGYSDFDRGAYVVTFVPKSWNTAPDKVKQGWP
B7: AlaPro-mTGase from S. mobaraensis (enzyme)
chain: APDSDDRVTPPAEPLDRMPDPYRPSYGRAETVVNNYIRKWQQVYSHRDGRKQQMTEEQREWLSYGCVGVTWVNSGQYPTNRLAFASFDEDRFKNELKNGRPRSGETRAEFEGRVAKESFDEEKGFQRAREVASVMNRALENAHDESAYLDNLKKELANGNDALRNEDARSPFYSALRNTPSFKERNGGNHDPSRMKAVIYSKHFWSGQDRSSSADKRKYGDPDAFRPAPGTGLVDMSRDRNIPRSPTSPGEGFVNFDYGWFGAQTEADADKTVWTHGNHYHAPNGSLGAMHVYESKFRNWSEGYSDFDRGAYVITFIPKSWNTAPDKVKQGWP

Biological target: wild type human growth hormone (human, UniProt P01241 27-217)
Sequence (P01241 27-217): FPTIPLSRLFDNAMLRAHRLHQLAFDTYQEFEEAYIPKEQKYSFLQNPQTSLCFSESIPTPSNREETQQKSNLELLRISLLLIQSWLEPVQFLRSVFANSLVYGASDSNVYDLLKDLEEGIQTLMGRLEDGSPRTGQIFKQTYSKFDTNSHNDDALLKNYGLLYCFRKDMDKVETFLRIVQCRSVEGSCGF
Test: cell-based or functional assay

B1 was tested. Which “RS (relative selectivity)” value did it give?
The value was 1.8.

What about the “Selectivity (Q141/Q40), CE” value of the same binder?
Its value is 10.3.

For B2, which “RS (relative selectivity)” value is on record?
The value was 5.1.

And the “Selectivity (Q141/Q40), CE” value?
The value was 29.1.

How did the “RS (relative selectivity)” value turn out when B3 was run?
Its value is 4.6.

What about the “Selectivity (Q141/Q40), CE” value of the same binder?
The value was 26.3.

What does the source list for B4?
RS (relative selectivity): 6.4; Selectivity (Q141/Q40), CE: 36.2

How did the “RS (relative selectivity)” value turn out when B5 was run?
The value was 3.

And the “Selectivity (Q141/Q40), CE” value?
Its value is 17.3.

How did the “RS (relative selectivity)” value turn out when B6 was run?
The value was 3.4.

What about the “Selectivity (Q141/Q40), CE” value of the same binder?
Its value is 19.3.

Which results are given for B7?
RS (relative selectivity): 1; Selectivity (Q141/Q40), CE: 5.7
